Reference: the RNAGym collection of RNA variant scans (doi:10.1073/pnas.2313332121)
This sample holds only a part of the variants without activity.

B1: TPR 5TU (parent)
chain: GGAUCUUCUCGAUCUAACAAAAAAGACAAAUCUGCCACAAAGCUUGAGAGCAUCUUCGGAUGCAGAGGCGGCAGCCUUCGGUGGCGCGAUAGCGCCAACGUUCUCAACUAUGACACGCAAAACGCGUGCUCCGUUGAAUGGAGUUUAUCAUG

Variants of: B1
Assay: polymerase ribozyme fitness, log enrichment relative to wild type (log ratio); higher = more active; in vitro selection for triplet polymerase activity
Method in brief: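 Mutant libraries were PCR-built and transcribed for each subunit of a heterodimeric triplet polymerase ribozyme and selected for one round in triplicate at −7 °C, frozen, before gel excision of extended constructs and streptavidin-bead capture. Input and output libraries were Illumina-sequenced, keeping genotypes with ≥10 input reads and ≥1 read per output. Fitness is a logarithmic ratio of genotype to wild-type enrichment, in base 2, using inverse-variance-weighted replicate averages.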

| Variant | polymerase ribozyme fitness (log ratio) |
| --- | --- |
| GGAUCUUCUCGAUCGAACAAAAAGGACAAAUCUGUCACAAAGCUUGAGAGCAUCAUCGGAUGCAGAGGCGGCAGCCGUCGGUGGCGCGAGAGCACCUACGUUCUCAACUAUGACACGCAAAACGCGUGCUCCGUUGAAUUGAGUUUAUCAUG [U15G A24G C35U U55A U77G U90G G94A A97U G140U] | ≤ -4.2 |
| GGAUCUUCUCGAUCCAACAAAAAAGACAAAUCUGCCACAAAGCUUGAGAGCAUCUUCGGAUGCAGAGGCGGCAGCCUUCGGUGGCACGAUAGCGCCAACGUUCUCAACUAUGACACGCAAAACGCGUGCUCCGUUGAAUGGAGUUUAUCAUG [U15C G86A] | 0.14 |
| GGAUCUUCUCGAUCCAACAAAAAAGACAAAUCUGCCACAAAGCUUGAGAGCAUAUUGGGAUGCAGAGGCGGCAGCCUUCGGUGGCGUGAUAGCGCCAACGUUCUCAACUAUGACACGCAAAACGCGUGCUCCGUUGAAUGGAGUUUAUCGUG [U15C C54A C57G C87U A150G] | -3.99 |
| GGAUCUUCUCGAUCGAACAAAAAAGACAAAUCUGCCACAACGCUUGAGAGCAUCUUCGGAUGCAGAGGCGGCAGCCUUCGGUGGCGCGAUAGUGCCAACGUUCUCAACUAUGACACGCAAAACGCGUGCUCCGUUGAAUGGAGUUUAUCAUG [U15G A41C C93U] | -1.93 |
| GGAUCUUCUCGAUCCAACAAAAAAGACAAAUCUGCCACAAAUCUUGAGAUCAUCUUCGGAUGCAGAGGCGGCAGCCUUCGGUGGCGCGAUAGGGCCAACGUUCUCAACUAUGACACGCAAAACGCGUGCUCAGUUGAAUAGAGUUUACCUUG [U15C G42U G50U C93G C132A G140A U148C A150U] | ≤ -4.2 |
| GGAUCUUCUCGAUCCAACAAAAAAGACAAAUCUGCAACAAAGCUUGAGAGCAUCAUCGGAUGCAGAGGCGGCAGCCUUCGGUGGCGCGAUAGCGCCAACGUUCUCUAUUAUGACGCUCAAAACGCGUGCUCCGUUGAAUAGAGUUUAUCAUG [U15C C36A U55A A106U C108U A115G G117U G140A] | ≤ -4.2 |
| GGAUCUUCUCGAUCGAACAAGAAAGACAAAUCUGCCACAAAGCUUGAGAGCAUCUUCGGAUGCAGAGGCGGCAGCCUUCGGUGGCGCGAUAGCGCCAACGUUCUCAACUAUGACACGCAAAACGCGUGCUCCGUCGAAUGGAGUUUAUCAUG [U15G A21G U135C] | -2.43 |
| GGAUCUUCUCGAUCGAACAAAAAAGACAAAUCUGCCACUAAGCUUGAGACCAUCUUCGGAUGCAGAGGCCGCAGCCUUCGGUGGCGCUAUAGCGCCAACGUUCUUAACUAUGACACGCAAAACGCGUGCUCCGUUGAAUGGAGUUUAUCAUG [U15G A39U G50C G70C G88U C105U] | ≤ -4.2 |
| GGAUCUUCUCGAUCCAACAAAAAAGACAAAUCUGCCACAAAGCUUGAGAGCAUCUACGGAUGCAGAGGAGGCAGCCUUCGGUGACGCGAUAGCGCCAACGUUCUCAACUAUGACACGCAAAACGCGUGCUCCGUUAAAUGGAGUUUAUCAUG [U15C U56A C69A G84A G136A] | -0.468 |
| GGAUCUUCUCGAUCCAACAAAAAAGACAAAUCUGCCACAAAGCUUGAGAGCAUCUGCGGAUGUAGAGGCGGCAGCCUUCGGUGGCGCGAUAGCGAAAACGUUCUCGACUAUGACACGCAAAACGCGUGCUCCGUUGAAUGGAGUUUAUCAUG [U15C U56G C63U C95A C96A A106G] | -1.5 |
| GGAUCUUCUCGAUCCAACAAAAAAGACAAAUCUGCCACAAAGCUUGAGAGCAUCUUCGGAUGCAGAGGCGGCAGCCUUCGGUGGCGCGAUAACGCCAAGGUUCUCAACUAUGACACGCAAAACGCGUGCUCCGUUGAAUGGAGUUUAACAUG [U15C G92A C99G U148A] | ≤ -4.2 |
| GGAUCUUCUCGAUCGAACAAAAAUGACAAAUCUGCCACAAAGCUUGAGAGCAUCUUCGGAUGCAGAGGCGGCAGCCUUCGGUGGCGCGAUAGCGCCAACGUUCUCAACUAUGACACGCAAAACGCGUGCUCCGUUGAAUGGAGUGUCUCAUG [U15G A24U U145G A147C] | -3.02 |
| GGAUCUUCUCGAUCGAUCAAAAAAAACAAAUCUGCCACAAAGCUUGAGAGCAUCUUCGGAGGCAGAGGCGGCAGCCUUCGGUGGCGCGAUAGGGCCAACGUUCUCAACUAUGACACGCAAAACGCGUGCUCCGUUGAAUUGAGUUUAUCAUG [U15G A17U G25A U61G C93G G140U] | ≤ -4.2 |
| GGAUCUUCUCGAUCGAACAAAAAAGACAAAUCUGCCAUAACGCUUGAGAGCUUCUUCGUAUGCACAGGCGGCAGCCUUCGGUGGCGCGAUAGCGCCAACGUUCUCAACUAUGACACGCAAAACGCGUGCUCCGUUGAAUGAAGUUUAUCAUG [U15G C38U A41C A52U G59U G65C G141A] | ≤ -4.2 |
| GGAUCUUCUCGAUCGAACAAAAAAGACAAAUCUGCCUCAAAGCUUGAGAGCAUCUAAGGAUGCAGAGGCGGCAGCCUUCGGUGGCGCGAUAGCGCCAACGUUCUCAACUAUGACACGCAAAAUGCGUGCUCCGUUGAAUGGAGUUUAUCAUG [U15G A37U U56A C57A C123U] | -1.55 |
| GGAUCUUCUCGAUCGAACAAAAAAGACAAAUCUGCUACAAAGCUUGCGAGCAUCUUCGGAUGCAGAGGCGGCAGCCUUCGGUGGCGCGAUAGCGCGAACGUUCUCAACUAUGACACGCAAAACGCGUGCUCCGUUGAAUGGAGCUUAUCAUG [U15G C36U A47C C96G U144C] | ≤ -4.2 |
| GGAUCUUCUCGAUCCAACAAAAAAGACAAAUCUGCCACAAAGCUUGAGAGCAUCUUCGGAUGCAGAGGCGGCAGCCUUCGGUGGCGCGAUCGCUCGAACGUUCUCAACUAUGACACGCAAAACGCGUGCUCCGUUGAAUGGAGUUUAUCAUG [U15C A91C G94U C96G] | ≤ -4.2 |
| GGAUCUUCUCGAUCGAACAAAAAAGACAAAUCUGCCACAAAGCUUGGGAGCAUUUUCGGAUGCAGAGGCGGCAGCCUUCGGUGGCGCGAUAGGGCUAACGUUCCCAACUAUGACACGCAAAACGCGUGCUCCGUUGAAUGGAGUUUAUCGUG [U15G A47G C54U C93G C96U U104C A150G] | -3.79 |
| GGAUCUUCUCGAUCCAACAAAAAAGACAAAUCUGCCACAAAGCUUGAGAGCAUCUACGGAUGCAGAGGCGGCAGCCUUCGGUGGCGCGAUAGCACCAACGUUCUCAACUAUGACACGCAAAACGCGUGCUCCGUUGAAUGGGGUUUAUCAUG [U15C U56A G94A A142G] | -0.297 |
